Experimental data as given in doi:10.1101/2024.04.06.588386.

Legend:
[1] = target: HPeV3-2A (2A^H/NC protein of human parechovirus 3) (Human parechovirus 3 (HPeV3)); assay: crystal structure
[2] = target: HPeV3-2A (2A^H/NC protein of human parechovirus 3) (Human parechovirus 3 (HPeV3)); assay: SEC-MALS
[3] = target: HPeV3-2A (2A^H/NC protein of human parechovirus 3) (Human parechovirus 3 (HPeV3)); assay: SEC-SAXS
[4] = target: LV1-2A2 (2A2 protein of Ljungan virus 1, isolate 87-012) (Ljungan virus 1 (isolate 87-012)); assay: crystal structure
[5] = target: LV4-2A2 (full-length 2A2 protein of Ljungan virus 4, strain 64-7855) (Ljungan virus 4 (strain 64-7855)); assay: SEC-MALS
[6] = target: LV4-2A2 (full-length 2A2 protein of Ljungan virus 4, strain 64-7855) (Ljungan virus 4 (strain 64-7855)); assay: SEC-SAXS
[7] = target: LV4-2A2^1-122 (C-terminally truncated 2A2 protein of Ljungan virus 4) (Ljungan virus 4 (strain 64-7855)); assay: crystal structure
[8] = target: LV4-2A2^1-122 (C-terminally truncated 2A2 protein of Ljungan virus 4) (Ljungan virus 4 (strain 64-7855)); assay: SEC-MALS
[9] = target: SEBV1-2A2 (2A2 protein of Sebokele virus 1) (Sebokele virus 1 (SEBV1)); assay: crystal structure
[10] = target: SEBV1-2A2 (2A2 protein of Sebokele virus 1) (Sebokele virus 1 (SEBV1)); assay: SEC-MALS
[11] = target: SEBV1-2A2 (2A2 protein of Sebokele virus 1) (Sebokele virus 1 (SEBV1)); assay: SEC-SAXS

Substance: HPeV3-2A (2A^H/NC protein of human parechovirus 3) (natural protein)
- stoichiometry N [1]: 4
- stoichiometry N [2]: 2
- stoichiometry N [3]: 2

Substance: LV1-2A2 (2A2 protein of Ljungan virus 1, isolate 87-012) (natural protein)
- stoichiometry N [4]: 2

Substance: LV4-2A2 (full-length 2A2 protein of Ljungan virus 4, strain 64-7855) (natural protein)
- stoichiometry N [5]: 2
- stoichiometry N [6]: 2

Substance: LV4-2A2^1-122 (C-terminally truncated 2A2 protein of Ljungan virus 4) (domain or fragment)
- stoichiometry N [7]: 2
- stoichiometry N [8]: 2

Substance: SEBV1-2A2 (2A2 protein of Sebokele virus 1) (natural protein)
- stoichiometry N [9]: 2
- stoichiometry N [10]: 2
- stoichiometry N [11]: 2
